This note sets out measurements from the RNAGym collection of RNA variant scans (doi:10.1073/pnas.2313332121).

The labels stand for the following.
B1: TPR t1 (parent)
chain: GACCAAUCUGCCCUCAGAGCUCGAGAACAUCUUCGGAUGCAGAGGAGGCAGGCUUCGGUGGCGCGAUAGCGCCAACGUCCUCAACCUCCAAUGCAUCCCACCACAUGAUGAUGCCUGAAGAGCCUUGGUUUUUUG

The data set covers variants of B1. Kind of data set: polymerase ribozyme fitness, log enrichment relative to wild type (log ratio); higher = more active; in vitro selection for triplet polymerase activity. The method, boiled down: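 Mutant libraries of each subunit of a heterodimeric triplet polymerase ribozyme were built by PCR and transcribed. Each library went through one round of in vitro selection in triplicate: annealing with biotinylated primer, partner subunit and triplets, frozen incubation at −7 °C, gel excision of extended constructs, streptavidin-bead capture and RT-PCR. Input and output libraries were Illumina-sequenced; only genotypes with ≥10 input reads and ≥1 read per output were kept. Fitness is log2(genotype enrichment/wild-type enrichment), using inverse-variance-weighted replicate averages.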
On to GACCAAUCUGCCCUCAUAGCUCGAGAACAUCUUCGGUUGCAGAGGAUGCAGGCUUCGGUGGCGCGAUAGCGCCAACGUCCUCAACCUCCAAUGCAUCCCACCACAUGAUGAUGCCUGAAGAGCCUUGGUUUUUUG, for which the “polymerase ribozyme fitness (log ratio)” value was -5.29.
GACCAAUCUGCCCUCACAGCUCGAGAACAUCUUCGGAUGCAGAGGAGGCAGGCUUCGGUGGCGCGAUAGCGCCAACGUCCUCAACCUCCAAUGCAUCCCACCACAUGAUGAUACCUGAAGAGCCUUGGUUUUUUG: the “polymerase ribozyme fitness (log ratio)” value was -6.34.
As to GACCAAUCUGCCCUCAUAGCUCGAGAACAUCUUCGGAUGGAGAGGAGGCAGGCUUCGGUGGCGCGAUAGCGCCAACGUCCUCAACCUCCAAUGCAUCCGACCACAUGAUGUUGCCUGAAGAGCCUUGGUUUUUUG, the “polymerase ribozyme fitness (log ratio)” value is -6.82.
For the variant GACCAAUCUGCCCUCAUAGCUCGAGAACAUCUUCGGAUGCAGAGGAGGAAGGCUUCGGUGGCGCGAUACCGCCAACGUCCUCAACCUCCAAUGCAUCCCACCACAUGACGAUGCAUGAAGAGCCUUGGUUUUUUG, the “polymerase ribozyme fitness (log ratio)” value is -7.12.
As for GACCAAUCUGCCCUCAUAGCUCGAGAACAUCUUCGGAUGCAGAGGAGGAAGGCUUCGGUGGCGCGAUAGCGCCAACGUCCUCAACCUCCAAUGCAUCCCACCACAUGAUGAUGCCUGAAGAGCCUCGGUUUUUUG, the “polymerase ribozyme fitness (log ratio)” value is -3.28.
Consider GACCAAUCUGCCCUCACAGCUCGAGAACAUCUUCGGAUGCAGAGGAGGCAGGCUUCGGUGGCGCGAUAUCGCCAACGUGCUCAACCUCCAAUGCAUCCCACCACAUGAUGAUGCCUGAAGAGCCUUGGUUUUUUG, for which the “polymerase ribozyme fitness (log ratio)” value is -4.17.
Next, GACCAAUCUGCCCUCACAGCUCGAGAACAUCUUCGGAUGCAGAGGAGGCAGGCUUCGGUGGCGCGAUAGCGCCAACGCCCUCAACCUCAAAUGCAACCCACCACAUGAUGAUGCCUGAAGAGCCUUGGUUUUUUG: -4.94.
Consider GACCAAUCUGCCCUCAUAGCUCGAGAACAUCUUCGGAUGCAGAGGAGGUAGGCUUCGGUGGCGCGAUAGCGCCAACGUCCUCAACCUCCAAUGCAUCCCACCACAUGAUGAUGCUUGAAGAGGCUUGGUAUUUUG, for which the “polymerase ribozyme fitness (log ratio)” value was -4.8.
Turning to GACCAAUCUGCCCUCAUAGCUCGAGGACAUCUUCGGAUGCAGAGGAGGCAGGCUUCGGUGGCGCGAUAGCACCAACGUCCUCAACCUCCAAUGAAUCCCACCACAUGAUGACGCAUGAAGAGCCUUGGUUUUUUG, the “polymerase ribozyme fitness (log ratio)” value was -2.54.
As to GACCAAUCUGCCCUCAUAGCUCGAGAACAUCUUCGGAUGCAGAGGAGGAAGGCUUAGGUGGCGCGAUAGCGCCAACGUCCUCAACCUCCAAUGCAUCCCACCACAUGAUGAUGCCUGAAGAGCCUUGGUUUUUUG, the “polymerase ribozyme fitness (log ratio)” value is -4.3.
Regarding GACCAAUCUGCCCUCAUAGCUCGAGAACAUCUUCGGAUGGAGAGGAGGCAGGCUUCGGUGGCGCGAUAGCGCCAACGUCCUCAACCUCGAAUGCAUCCCACCACAUGAUGAUGCCUGAAGAGCCUUGGUUUUUUG, the “polymerase ribozyme fitness (log ratio)” value is -6.24.
Regarding GACCAAUCUGCCCUCACAGCUCGAGAACAUCUUCGGAUGCAGAGGAGGCAGGCUUCGGUGGCGCGAUAGCGCCAACGUCCUCAACCACCAAUGCAUCCCACCACAUGAUGAUGCCUGAAGAGCCUUGGUUUUUUG, the “polymerase ribozyme fitness (log ratio)” value was -3.72.
Consider GACCAAUCUGCCCUCAUAGCUGGAGAACAUCUGCGGAUGCAGAGGAGGCAGGCUUCGGUGACGCGAUAGCGCCAACGUCCUCAACCUCCAAUGCAUCCCACCACAUGAUGAUGCAUGAAGAGCCUUGGUUUUUUG, for which the “polymerase ribozyme fitness (log ratio)” value was -4.69.
As for GACCAAUCUGCCCUCAUAGCUCGAGAACAUCUUCGGAUGCAGAGGAGGCAGGCUUCGGUGGCGCGAUAGCGCCAACGUCCUCAACCUCCAAUGCAUCCCACCACAUGAUGAUGCCUGAAGAGCCUUGGUUUUUUG, the “polymerase ribozyme fitness (log ratio)” value is -2.29.
Regarding GACCAAUCUGCCCUCAUAGCUCGAGAACAUCUUCGGAUGCAGAGGAGGCAGGCUUCGGUGGCGCGAUAGCGCCAACGUCCUCUACCUCCAAUGCAUCCCACCACAUGAUGAUGCCUGAAGAGGCUUGGUUUUUUG, the “polymerase ribozyme fitness (log ratio)” value is -1.3.
Next, GACCAAUCUGCCCUCACAGCUCGAGAACAUCUUCGGAUGCAGAGGAGGCAGGCUUCGGUGGCGCGAUAGCGCCAACGUCCUCAACCUCCAAUGCAUCCCACCACAUGAUGAUGCCGGAAGAGCAUUGGUUUUUUG: -2.05; GACCAAUCUGCCCUCACAGCUCGAGAACAUCUUCGGAUGCAGAGGAGGCAGGCUUCAGUGGCGCGAUAGCGCCAACGUCCUCAACCUCCAAUGCAUCCCACCACAUGAUGAUGCCUGAAGAGCUUUGGUUUUUUG: -5.29.
Consider GACCAAUCUGCCCUCAUAGCUCGAGAUCAUCUUCGGAUGCAGAGGAGGCAGGCUUCGGUGUCGCGAUAGCGCCAACGUCCUCAACCUCCAAUGCAUCCCACCACAUGAUGAUGCCUGAAGAGCCUUGGUUUUUUG, for which the “polymerase ribozyme fitness (log ratio)” value is -6.16.
Regarding GACCAAUCUGCCCUCACAGCUCGAGAACAUCUUCGGAUGCAGAGGAGGCAGGCUUCGGUCGCGCGAUAGCGCCAACGUCCUCAACCUCCAAUGCAUCCCACCACAUGAUGAUGCCUGAAGAGCCUUGGUUUUUUG, the “polymerase ribozyme fitness (log ratio)” value was -4.24.
GACCAAUCUGCCCUCACAGCUCGAGAACAUCUUCGGAUGCAGAGGAGGCAGGCUUCGGUAGCGCGAUAGCGCCAACGUCCUCAACCUCCAAUGCAUCCCACCACAUGAUGAUGCCUGAAGAGCCUUGGUUUUUUG: the “polymerase ribozyme fitness (log ratio)” value was -4.31.
Regarding GACCAAUCUGCCCUCACAGCGCGAGAACAUCUUCGGAUGCAGAGGAGGCAGGCUUCGGUCGCGCGAUAGCGCCAACGUUCUCAACCUCCAAUGCAUCCCACCACAUGAUGAUGCCUAAAGAGCGUUGGUUUUUUG, the “polymerase ribozyme fitness (log ratio)” value is -5.63.
